Reference: patent US20040053206A1 (DYAX, published 2004)
Positions count from the first letter of the chain named.

What was measured:
[1] = target: porcine pancreatic kallikrein (porcine, UniProt P00752 8-246); assay: protease inhibition, apparent Ki (Ki,app)
human plasma factor XIa = human plasma factor XIa (human, UniProt P03951 19-625); assay: protease inhibition, apparent Ki (Ki,app)
human plasmin = human plasmin (human, UniProt P00747 97-810, limits assumed); assay: protease inhibition, apparent Ki (Ki,app)
Chain of human plasmin (P00747 97-810 limits assumed): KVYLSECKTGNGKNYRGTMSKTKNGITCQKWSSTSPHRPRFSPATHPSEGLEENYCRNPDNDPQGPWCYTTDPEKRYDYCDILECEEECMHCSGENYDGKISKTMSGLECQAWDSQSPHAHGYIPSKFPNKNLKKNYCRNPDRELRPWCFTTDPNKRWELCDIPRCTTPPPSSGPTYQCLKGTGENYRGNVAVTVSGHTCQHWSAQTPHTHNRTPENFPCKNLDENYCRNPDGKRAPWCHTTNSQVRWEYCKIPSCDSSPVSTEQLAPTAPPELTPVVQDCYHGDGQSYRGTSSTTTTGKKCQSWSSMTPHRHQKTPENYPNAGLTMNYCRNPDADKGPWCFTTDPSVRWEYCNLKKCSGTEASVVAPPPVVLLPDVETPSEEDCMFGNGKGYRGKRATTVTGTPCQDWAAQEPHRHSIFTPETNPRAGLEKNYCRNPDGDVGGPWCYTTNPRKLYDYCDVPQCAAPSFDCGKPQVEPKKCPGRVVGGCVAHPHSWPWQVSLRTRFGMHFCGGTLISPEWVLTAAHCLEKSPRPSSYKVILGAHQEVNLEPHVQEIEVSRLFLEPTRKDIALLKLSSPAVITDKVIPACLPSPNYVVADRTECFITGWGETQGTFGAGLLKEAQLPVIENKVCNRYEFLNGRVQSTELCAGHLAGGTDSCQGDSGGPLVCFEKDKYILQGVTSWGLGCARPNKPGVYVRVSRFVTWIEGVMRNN

human plasma kallikrein [2] = target: T1, human plasma kallikrein (human, UniProt P03952 20-638); assay: protease inhibition, apparent Ki (Ki,app)
T1 sequence (P03952 20-638 limits assumed): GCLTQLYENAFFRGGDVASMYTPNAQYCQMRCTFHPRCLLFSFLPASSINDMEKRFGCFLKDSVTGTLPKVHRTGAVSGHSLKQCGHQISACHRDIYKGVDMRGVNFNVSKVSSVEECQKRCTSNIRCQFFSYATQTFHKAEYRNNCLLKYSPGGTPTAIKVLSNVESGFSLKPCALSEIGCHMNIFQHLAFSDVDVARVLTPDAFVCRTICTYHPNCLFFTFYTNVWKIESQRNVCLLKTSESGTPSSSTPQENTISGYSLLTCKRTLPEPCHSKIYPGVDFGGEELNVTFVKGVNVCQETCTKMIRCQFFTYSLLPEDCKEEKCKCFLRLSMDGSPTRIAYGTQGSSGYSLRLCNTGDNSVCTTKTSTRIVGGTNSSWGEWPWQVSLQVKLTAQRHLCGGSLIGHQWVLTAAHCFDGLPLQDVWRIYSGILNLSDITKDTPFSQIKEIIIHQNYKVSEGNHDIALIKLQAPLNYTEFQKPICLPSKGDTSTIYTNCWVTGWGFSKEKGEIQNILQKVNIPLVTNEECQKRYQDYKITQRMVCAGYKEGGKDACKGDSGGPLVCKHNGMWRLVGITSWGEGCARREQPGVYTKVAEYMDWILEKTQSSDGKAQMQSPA

human plasma kallikrein [3] = target: T1, human plasma kallikrein; assay: comparison of Ki,app values, reference aprotinin
human plasma kallikrein [4] = target: T1, human plasma kallikrein; assay: phage display selection

Chain of porcine pancreatic kallikrein (P00752 8-246): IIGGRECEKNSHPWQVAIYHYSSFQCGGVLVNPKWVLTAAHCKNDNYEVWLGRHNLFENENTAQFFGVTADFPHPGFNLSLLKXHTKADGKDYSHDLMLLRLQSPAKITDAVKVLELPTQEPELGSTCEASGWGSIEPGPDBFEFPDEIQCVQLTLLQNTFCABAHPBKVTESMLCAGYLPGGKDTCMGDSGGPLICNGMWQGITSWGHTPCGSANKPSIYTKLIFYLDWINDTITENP

B1: PEP-1 KI polypeptide (designed binder)
chain: EAMHSFCAFKADDGPCRAAHPRWFFNIFTRQCEEFIYGGCEGNQNRFESLEECKKMCTRD
notes: also called DX88
Work on B1 yielded a Ki [1] of 27000 nM, a Ki (human plasma factor XIa) of 10 nM and a Ki (human plasmin) of 140 nM. For the same binder, the Ki (human plasma kallikrein [2]) was 0.044 nM and the “fold higher affinity (Ki,app) than aprotinin” value (human plasma kallikrein [3]) was 1000 fold.

B2: KKII/3#6 (designed binder)
chain: MHSFCAFKADDGHCKANHQRFFFNIFTRQCEEFSYGGCGGNQNRFESLEECKKMCTRD
notes: also called LACI(K1) variant
B2: binds (human plasma kallikrein [4]).

B3: KKII/3#9 (designed binder)
chain: B2 chain
notes: also called LACI(K1) variant
B3: binds (human plasma kallikrein [4]).

B4: KKII/3#1 (designed binder)
chain: B2 chain with N17S, H18L, Q19P, S34I, G39E
notes: also called LACI(K1) variant
B4: binds (human plasma kallikrein [4]).

B5: KKII/3#5 (designed binder)
chain: B2 chain with N17S, H18L, Q19P, S34I
notes: also called LACI(K1) variant
B5: binds (human plasma kallikrein [4]).

B6: KKII/3#2 (designed binder)
chain: B2 chain with H13P, Q19L
notes: also called LACI(K1) variant
B6: binds (human plasma kallikrein [4]).

B7: KKII/3#4 (designed binder)
chain: B2 chain with E32Q, S34T, G39A
notes: also called LACI(K1) variant
B7: binds (human plasma kallikrein [4]).

B8: KKII/3#10 (designed binder)
chain: B2 chain with A16G, N17A, Q19L, S34I, G39E
notes: also called LACI(K1) variant
B8: binds (human plasma kallikrein [4]).

B9: KKII/3#3 (designed binder)
chain: B2 chain with S34T
notes: also called LACI(K1) variant
B9: binds (human plasma kallikrein [4]).
